B1: cr316 (nucleic acid)
guide: GTTTAAGAGCTAAGCTGGAAACAGCATAGCAAGTTTAAATAATGCTAGTCAGTTATCAACTTGAAAAAGTGGCACCAAGTTGGTGCT
modifications: listed as DNA, chemistry not fully specified
B2: cr041 (nucleic acid)
guide: GCTTCAGAGCTAAGCTGGAAACAGCATAGCAAGTTTAAATAAGGCTAGTCCGTTATCAACTTGAAAAAGTGGCACCGAGTCGGTGCT
modifications: listed as DNA, chemistry not fully specified
B3: cr310 (nucleic acid)
guide: GTTTAAGAGCTAAGCTGGAAACAGCATAGCAAGTTTAAATTAGGCTAGTCCGTTATCAACTTGAATAAGTGGCACCGAGTCGGTGCT
modifications: listed as DNA, chemistry not fully specified
B4: cr562 (nucleic acid)
guide: GTTTAAGAGCTAAGCTGGAAACAGCATAGCGACTTTAAATAAGGCTAGTCCGTTATCAACTTGAGAAAGTGGCACCGAGTCGGTGCT
modifications: listed as DNA, chemistry not fully specified
B5: cr509 (nucleic acid)
guide: GTTTAAGAGCTAAGCTGGAAACAGCATAGCAAGTTTAAATAACGCTAGTCGGTTATCAACTTGAAAAAGTGGCAACGAGTCGTTGCT
modifications: listed as DNA, chemistry not fully specified
B6: cr750 (nucleic acid)
guide: GTTTAAGAGCTAAGCTGGAAACAGCATAGCAAGGTTAAATAAGGCTAGTCCGTTATCAATTTGAAAAAATGGCACCGAGTCGGTGCT
modifications: listed as DNA, chemistry not fully specified
B7: cr332 (nucleic acid)
guide: GTTTAAGAGCTAAGCTGGAAACAGCATAGCAATATTAAATAAGGCTAGTCCGTTATCAACTTGAAAAAGTGGCACCGAGTCGGTGCT
modifications: listed as DNA, chemistry not fully specified
B8: cr248 (nucleic acid)
guide: GTTTAAGAGCTAAGCTGGAAACAGCATAGCAAGTTTAAATAACGCTAGTCGGTTATCAACTTGAAAAAGTGGCACCGAGTCGGTGCT
modifications: listed as DNA, chemistry not fully specified
B9: cr663 (nucleic acid)
guide: GTTTAAGAGCTAAGCTGGAAACAGCATAGCAAGGTTAAATAAGGCTAGTCCGTTATCAACTTGAAAAAGTGGCACCTAGTAGGTGCT
modifications: listed as DNA, chemistry not fully specified
B10: cr191 (nucleic acid)
guide: GTTTAAGAGCTAAGCTGGAAACAGCATAGCAACTTTAAATAAGGCTAGTCCGTTATCAACTTGAAAAAGTGGCAGCGAGTCGCTGCT
modifications: listed as DNA, chemistry not fully specified
B11: cr337 (nucleic acid)
guide: GTTTAAGAGCTAAGCTGGAAACAGCATAGCAAGTTTAAATAACGCTAGTCGGTTATCAACTTGAGAAAGTGGCACCGAGTCGGTGCT
modifications: listed as DNA, chemistry not fully specified
B12: cr773 (nucleic acid)
guide: GTTTAAGAGCTAAGCTGGAAACAGCATAGCAAGGTTAAATAAGGCTTGTCCGTTATCAACTTGGAAAAGTGGCACCGAGTCGGTGCT
modifications: listed as DNA, chemistry not fully specified
B13: cr665 (nucleic acid)
guide: GTTTAAGAGCTAAGCTGGAAACAGCATAGCAACTTTAAATAAGGCTAGTCCGTTATCAACTTGAAAAAGTGCCACCGAGTCGGTGGT
modifications: listed as DNA, chemistry not fully specified
B14: cr268 (nucleic acid)
guide: GTTTAAGAGCTAAGCTGGAAACAGCATAGCAAGGTTAAATAAGGCTAGTCCGTTATCAACTTGAAAAAGTGGCACAGAGTCTGTGCT
modifications: listed as DNA, chemistry not fully specified
B15: cr111 (nucleic acid)
guide: GTTTAAGAGCTAAGCTGGAAACAGCATAGCAACTTTAAATAAGGCTAGTCCGTTATCAACTTGAAAAAGTGGCACAGAGTCTGTGCT
modifications: listed as DNA, chemistry not fully specified
B16: cr280 (nucleic acid)
guide: GTTTAAGAGCTAAGCTGGAAACAGCATAGCAACTTTAAATAAGGCTAGTCCGTTATCAACTTGAAAAAGTGTCACCGAGTCGGTGAT
modifications: listed as DNA, chemistry not fully specified
B17: cr475 (nucleic acid)
guide: GTTTAAGAGCTAAGCTGGAAACAGCATAGCAAGTTTAAATTAGGCTAGTCCGTTATCAACTTGATAAAGTGGCACCGAGTCGGTGCT
modifications: listed as DNA, chemistry not fully specified
B18: cr157 (nucleic acid)
guide: GTTTAAGAGCTAAGCTGGAAACAGCATAGCAACTTTAAATAAGGCTAGTCCGTTATCAACTTGAAAAAGTGGCATCGAGTCGATGCT
modifications: listed as DNA, chemistry not fully specified
B19: cr079 (nucleic acid)
guide: GGTCAAGAGCTAAGCTGGAAACAGCATAGCAAGTTTAAATAAGGCTAGTCCGTTATCAACTTGAAAAAGTGGCACCGAGTCGGTGCT
modifications: listed as DNA, chemistry not fully specified
B20: cr528 (nucleic acid)
guide: GTTTAAGAGCTAAGCTGGAAACAGCATAGCCGCTTTAAATAAGGCTAGTCCGTTATCAACTTGAAAAAGTGGCACCGAGTCGGTGCT
modifications: listed as DNA, chemistry not fully specified
B21: cr204 (nucleic acid)
guide: GTTTAAGAGCTAAGCTGGAAACAGCATAGCAAGCTTAAATAAGTCTAGTACGTTATCAACTTGAAAAAGTGGCACCGAGTCGGTGCT
modifications: listed as DNA, chemistry not fully specified
B22: cr613 (nucleic acid)
guide: GTTTAAGAGCTAAGCTGGAAACAGCATAGCAAGTTTAAATAACGGTACTCGGTTATCAACTTGAAAAAGTGGCACCGAGTCGGTGCT
modifications: listed as DNA, chemistry not fully specified
B23: cr445 (nucleic acid)
guide: GTTTAAGAGCTAAGCTGGAAACAGCATAGCAAGTTTAAATAAGGCTAGTCCGTTATCAACTTGAAAAAGTGGCATCCAGTTGCTGCT
modifications: listed as DNA, chemistry not fully specified
B24: cr103 (nucleic acid)
guide: GTTTAAGAGCTAAGCTGGAAACAGCATAGCATGTTTAAATAAGGCTAGTCCTTTATCAACTTGAAAAAGTGGCACCGAGGCGGTGCT
modifications: listed as DNA, chemistry not fully specified
B25: cr024 (nucleic acid)
guide: TTGTAAGAGCTAAGCTGGAAACAGCATAGCAAGTTTAAATAAGGCTAGTCCGTTATCAACTTGAAAAAGTGGCACCGAGTCGGTGCT
modifications: listed as DNA, chemistry not fully specified
B26: cr424 (nucleic acid)
guide: GTTTAAGAGCTAAGCTGGAAACAGCATAGCAAGTTTAAATAACGCTAGTCGGTTATCAACTTGAAAAAGTGGCGTCGAGTCGACGCT
modifications: listed as DNA, chemistry not fully specified
B27: cr028 (nucleic acid)
guide: GTCCAAGAGCTAAGCTGGAAACAGCATAGCAAGTTTAAATAAGGCTAGTCCGTTATCAACTTGAAAAAGTGGCACCGAGTCGGTGCT
modifications: listed as DNA, chemistry not fully specified
B28: cr649 (nucleic acid)
guide: GTTTAAGAGCTAAGCTGGAAACAGCATAGCAACTTTAAATAAGGTTAATCCGTTATCAACTTGAAAAAGTGGCACCGAGTCGGTGCT
modifications: listed as DNA, chemistry not fully specified
B29: cr628 (nucleic acid)
guide: GTTTAAGAGCTAAGCTGGAAACAGCATAGCAAGTTTAAATAAGGCTAGTCCGTTATCAACTTGAAAAAGTGGTACCAAGTTGGTACT
modifications: listed as DNA, chemistry not fully specified
B30: cr704 (nucleic acid)
guide: GTTTAAGAGCTAAGCTGGAAACAGCATAGCAAGTTTAAATAAGGCTAGTCCGTTATCAACTTGAAAAAGCGGCACCGAGTCGGTGCT
modifications: listed as DNA, chemistry not fully specified

What follows are molecules tested on K562 CRISPRi cells (assay: Constant region variant library pooled growth screen, K562). Conditions: sgRNA constant region variant; activity relative to unmodified constant region cr995; mean CRISPRi activity.
Assay type: cell-based, human
Summary of the method: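 Pooled library transduced into K562 CRISPRi cells in duplicate, puromycin-selected, grown at >2000× coverage and sampled after 4 to 8 days. Phenotypes per targeting sequence:constant region pair were normalized to the unmodified-scaffold pairing to give relative activity.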

Molecule	Mean relative activity
B1	0.01422
B2	0.01415
B3	0.01363
B4	0.01393
B5	0.01061
B6	0.01125
B7	0.01145
B8	0.01369
B9	0.01081
B10	0.01358
B11	0.01313
B12	0.01327
B13	0.01294
B14	0.01166
B15	0.013
B16	0.01273
B17	0.0113
B18	0.01383
B19	0.01223
B20	0.01243
B21	0.01236
B22	0.01125
B23	0.01078
B24	0.01259
B25	0.01205
B26	0.01319
B27	0.01375
B28	0.01138

Same assay, conditions: sgRNA constant region variants; activity relative to the original, un-modified constant region cr995

Molecule	Mean relative activity
B29	1.033
B30	1.033

Source: patent publication US20220259593A1, “CONTROL OF MAMMALIAN GENE DOSAGE USING CRISPR” (The Regents of the University of California, priority 2019, published 2022)
